Source: paper PMC10731242, “Macromolecular crowding potently stimulates DNA supercoiling activity of Mycobacterium tuberculosis DNA gyrase”

Experiments:
Details in all cases: protein: recombinant;recombinant, tags: His-TEV tag, removed by TEV protease;His-TEV tag, chain copies: 2;2, label: 3' Tamra~Q on FL1013, blunt
[1] = biological target: T1, DNA gyrase subunit A (GyrA);DNA gyrase subunit B (GyrB) (Mycobacterium …, UniProt P9WG47;P9WG45 1-838;1-675, |); test: EMSA; 2 mM Mg2+, no crowding agent
T1 sequence (P9WG47 whole entry, chain 1 of 2): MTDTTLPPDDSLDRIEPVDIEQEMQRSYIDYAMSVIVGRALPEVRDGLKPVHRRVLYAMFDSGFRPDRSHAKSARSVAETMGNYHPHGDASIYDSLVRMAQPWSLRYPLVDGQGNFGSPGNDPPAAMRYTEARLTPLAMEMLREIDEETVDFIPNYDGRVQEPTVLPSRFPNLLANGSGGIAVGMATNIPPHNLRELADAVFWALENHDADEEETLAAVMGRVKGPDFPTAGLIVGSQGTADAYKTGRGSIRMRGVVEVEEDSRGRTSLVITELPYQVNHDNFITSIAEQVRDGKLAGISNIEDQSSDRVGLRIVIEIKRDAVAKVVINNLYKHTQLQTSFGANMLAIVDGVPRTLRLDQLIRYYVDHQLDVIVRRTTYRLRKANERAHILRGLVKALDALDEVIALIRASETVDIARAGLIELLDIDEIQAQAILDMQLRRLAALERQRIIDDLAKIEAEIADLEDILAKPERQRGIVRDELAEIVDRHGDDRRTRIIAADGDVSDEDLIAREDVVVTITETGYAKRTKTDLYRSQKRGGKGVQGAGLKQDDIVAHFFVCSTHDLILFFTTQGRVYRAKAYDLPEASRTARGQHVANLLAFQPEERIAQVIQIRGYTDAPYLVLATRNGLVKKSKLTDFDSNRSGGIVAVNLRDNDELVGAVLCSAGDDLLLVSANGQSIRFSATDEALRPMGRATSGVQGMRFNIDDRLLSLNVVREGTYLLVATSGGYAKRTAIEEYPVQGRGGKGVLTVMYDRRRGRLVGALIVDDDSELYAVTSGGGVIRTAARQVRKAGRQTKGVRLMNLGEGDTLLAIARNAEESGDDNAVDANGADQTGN
T1 sequence (P9WG45 whole entry, chain 2 of 2): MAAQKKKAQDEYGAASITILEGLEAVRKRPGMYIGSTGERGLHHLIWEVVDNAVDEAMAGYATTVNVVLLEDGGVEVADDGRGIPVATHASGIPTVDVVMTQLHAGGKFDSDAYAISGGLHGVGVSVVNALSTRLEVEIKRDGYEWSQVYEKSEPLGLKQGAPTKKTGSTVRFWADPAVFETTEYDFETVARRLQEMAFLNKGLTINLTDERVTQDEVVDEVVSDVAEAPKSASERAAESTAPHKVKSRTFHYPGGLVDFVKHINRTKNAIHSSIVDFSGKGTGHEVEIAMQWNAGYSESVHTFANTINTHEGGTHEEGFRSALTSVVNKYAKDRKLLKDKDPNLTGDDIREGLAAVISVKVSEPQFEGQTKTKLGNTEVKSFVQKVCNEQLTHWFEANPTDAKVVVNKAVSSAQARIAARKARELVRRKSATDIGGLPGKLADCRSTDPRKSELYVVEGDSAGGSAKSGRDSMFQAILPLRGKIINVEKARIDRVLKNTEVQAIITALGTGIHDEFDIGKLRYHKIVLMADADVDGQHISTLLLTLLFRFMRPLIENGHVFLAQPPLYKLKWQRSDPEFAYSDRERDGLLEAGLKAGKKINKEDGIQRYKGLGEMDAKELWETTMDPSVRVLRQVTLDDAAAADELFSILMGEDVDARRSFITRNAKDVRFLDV

[2] = biological target: T1, DNA gyrase subunit A (GyrA);DNA gyrase …; test: EMSA; 2 mM Mg2+, 5% PEG400
[3] = biological target: T1, DNA gyrase subunit A (GyrA);DNA gyrase …; test: EMSA; 2 mM Mg2+, 2 M glycine betaine

B1: 50 bp DNA oligomer (FL1013/FL1014) (dsDNA)
DNA 1: TCAGTCCGACATCGGTCATGAATGACTATGCACGTAAACGAGATGCCAAC
DNA 2: GTTGGCATCTCGTTTACGTGCATAGTCATTCATGACCGATGTCGGACTGA
- Kd [1]: 94 ± 4 nM
- Kd [2]: 60 ± 24 nM
- Kd [3]: 85 ± 6 nM
